Laboratory results as given in US20220267410A1 (UNIVERSITAT STUTTGART, published 2022).

T1: TNFR2 on Kym-1 cells (UniProt P20333 23-461, limits assumed)
T1 sequence (looked up): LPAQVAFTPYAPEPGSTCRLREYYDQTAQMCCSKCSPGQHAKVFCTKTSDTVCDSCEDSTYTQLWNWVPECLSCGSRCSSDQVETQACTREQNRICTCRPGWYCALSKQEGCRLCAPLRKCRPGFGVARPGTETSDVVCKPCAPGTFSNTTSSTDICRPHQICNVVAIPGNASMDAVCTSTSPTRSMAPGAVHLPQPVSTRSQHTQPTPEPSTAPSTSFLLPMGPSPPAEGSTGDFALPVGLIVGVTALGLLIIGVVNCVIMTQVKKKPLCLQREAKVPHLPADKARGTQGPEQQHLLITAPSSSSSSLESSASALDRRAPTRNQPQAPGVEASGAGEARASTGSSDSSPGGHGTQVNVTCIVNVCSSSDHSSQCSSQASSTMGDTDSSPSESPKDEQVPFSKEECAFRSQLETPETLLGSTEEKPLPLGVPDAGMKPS

T2: human TNFR2-Fc (etanercept) (human, UniProt P20333 23-257)
T2 construct: Commercial drug coated on ELISA plates (200 ng/well); also called immobilized TNF-R2; not shown: Fc part of etanercept
T2 sequence (looked up): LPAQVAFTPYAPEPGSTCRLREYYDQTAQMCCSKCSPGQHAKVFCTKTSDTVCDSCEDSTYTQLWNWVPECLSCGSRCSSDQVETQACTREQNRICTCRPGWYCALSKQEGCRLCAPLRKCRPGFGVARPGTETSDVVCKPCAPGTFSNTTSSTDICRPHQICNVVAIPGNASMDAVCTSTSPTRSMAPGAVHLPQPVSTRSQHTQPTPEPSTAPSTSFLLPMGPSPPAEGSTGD


What was measured:
TNFR2 on Kym-1 cells = molecular target: T1, TNFR2 on Kym-1 cells; assay: cell-based or functional assay
[1] = molecular target: T2, human TNFR2-Fc (etanercept); assay: ELISA on coated etanercept
Protocol: The binding of scTNFR2 and the scTNFR2-Fc(Δab) proteins to human TNFR2-Fc (etanercept) was analyzed by ELISA. 96-well ELISA plates were coated with 200 ng/well etanercept in coating buffer (0.1 M sodium carbonate, pH 9.5) overnight at 4° C., blocked with 2% skim milk in PBS (MPBS) and washed with washing buffer PBST (PBS, 0.05 Tween 20). ScTNFR2 and scTNFR2-Fc(Δab) proteins were titrated in duplicates and incubated on the plates for 2 h at room temperature, followed by washing with PBST. Receptor-bound complexes were detected with mouse anti-huTNFα F6C5 (Novus, 1 μg/ml) and goat anti-mouse IgG(Fc)-HRP (Sigma-Aldrich, 1:10,000), followed by extensive washing with PBST each, before incubation with HRP substrate.

EC50 [1] [pM]	Binder	EC50 of bioactivity on Kym-1 with 80M2 (cell death, crystal violet) (TNFR2 on Kym-1 cells) [pM]
670	6xHis-scTNFR2 143 (ligand, Expressed with Igκ leader and N-terminal 6xHis tag; also called variant 143) MCGSHHHHHHSGIPASDKPVAHVVANPQAEGQLQWLNRRANALLANGVELRDNQLVVPSEGLYLIYSQVLFKGQGCPSTHVLLTHTISRIAVSYQTKVNLLSAIKSPCQRETPEGAEAKPWYEPIYLGGVFQLEKGDRLSAEINRPDYLNFRESGQVYFGIIALGGGPSDKPVAHVVANPQAEGQLQWLNRRANALLANGVELRDNQLVVPSEGLYLIYSQVLFKGQGCPSTHVLLTHTISRIAVSYQTKVNLLSAIKSPCQRETPEGAEAKPWYEPIYLGGVFQLEKGDRLSAEINRPDYLNFRESGQVYFGIIALGGGPSDKPVAHVVANPQAEGQLQWLNRRANALLANGVELRDNQLVVPSEGLYLIYSQVLFKGQGCPSTHVLLTHTISRIAVSYQTKVNLLSAIKSPCQRETPEGAEAKPWYEPIYLGGVFQLEKGDRLSAEINRPDYLNFRESGQVYFGIIAL	11.9
710	6xHis-scTNFR2 146 (ligand, Expressed with Igκ leader and N-terminal 6xHis tag; also called variant 146) MCGSHHHHHHSGIPASDKPVAHVVANPQAEGQLQWLNRRANALLANGVELRDNQLVVPSEGLYLIYSQVLFKGQGCPSTHVLLTHTISRIAVSYQTKVNLLSAIKSPCQRETPEGAEAKPWYEPIYLGGVFQLEKGDRLSAEINRPDYLNFRESGQVYFGIIALGGGTPSDKPVAHVVANPQAEGQLQWLNRRANALLANGVELRDNQLVVPSEGLYLIYSQVLFKGQGCPSTHVLLTHTISRIAVSYQTKVNLLSAIKSPCQRETPEGAEAKPWYEPIYLGGVFQLEKGDRLSAEINRPDYLNFRESGQVYFGIIALGGGTPSDKPVAHVVANPQAEGQLQWLNRRANALLANGVELRDNQLVVPSEGLYLIYSQVLFKGQGCPSTHVLLTHTISRIAVSYQTKVNLLSAIKSPCQRETPEGAEAKPWYEPIYLGGVFQLEKGDRLSAEINRPDYLNFRESGQVYFGIIAL	6.55
760	6xHis-scTNFR2 147 (ligand, Expressed with Igκ leader and N-terminal 6xHis tag; also called variant 147) MCGSHHHHHHSGIPASDKPVAHVVANPQAEGQLQWLNRRANALLANGVELRDNQLVVPSEGLYLIYSQVLFKGQGCPSTHVLLTHTISRIAVSYQTKVNLLSAIKSPCQRETPEGAEAKPWYEPIYLGGVFQLEKGDRLSAEINRPDYLNFRESGQVYFGIIALGGGGPSDKPVAHVVANPQAEGQLQWLNRRANALLANGVELRDNQLVVPSEGLYLIYSQVLFKGQGCPSTHVLLTHTISRIAVSYQTKVNLLSAIKSPCQRETPEGAEAKPWYEPIYLGGVFQLEKGDRLSAEINRPDYLNFRESGQVYFGIIALGGGGPSDKPVAHVVANPQAEGQLQWLNRRANALLANGVELRDNQLVVPSEGLYLIYSQVLFKGQGCPSTHVLLTHTISRIAVSYQTKVNLLSAIKSPCQRETPEGAEAKPWYEPIYLGGVFQLEKGDRLSAEINRPDYLNFRESGQVYFGIIAL	8.58
